{
  "source": "patent US20030119716A1",
  "about": "“Methods for screening, treating and diagnosing G-protein coupled receptor-related disorders and compositions thereof” (Wyeth, priority 2001, published 2003)",
  "key": {"[1]": {"molecular_target": "Gαi1", "assay": "cell-based or functional assay"}, "[2]": {"molecular_target": "Gαq/i chimera", "assay": "cell-based or functional assay"}},
  "data": [
    {"substance": "human RGS4 (from UniProt P49798 1-205)", "values": [
      {"measurement": "inhibition of SRE activation (SRE-luciferase reporter, all quinpirole concentrations, CHO-D2R cells)", "setting": "[1]", "value": "> 80", "unit": "%"},
      {"measurement": "reduction in quinpirole-stimulated SRE activation (SRE-luciferase reporter, 100 nM quinpirole, CHO-D2R cells)", "setting": "[1]", "value": 85, "unit": "%"},
      {"measurement": "reduction in SRE activation (SRE-luciferase reporter, CHO-D2R cells)", "setting": "[2]", "value": 60, "unit": "%"}
    ]},
    {"substance": "human RGSz1 (from UniProt O76081 1-388)", "values": [
      {"measurement": "attenuation of SRE activation (SRE-luciferase reporter, CHO-D2R cells co-transfected with Gαi1)", "setting": "[1]", "value": "25 to 30", "unit": "%"}
    ]}
  ]
}
